Measured values: the supplement of paper PMC9170038

Tested on: MS2 coat protein
Experiment: apparent KD of MS2 coat protein; designed switch direction (-1 OFF switch, 1 ON switch): -1; higher = weaker reporter binding
Outline: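 Designed RNA switches with common flanks were transcribed on Illumina chips by stalled E. coli RNA polymerase and titrated with SNAP-549-labelled MS2 coat protein, from 0.7 or 1.5 nM doubling to 3 µM, in Tris-HCl pH 7.5 buffer with KCl, MgCl2, BSA, DTT, tRNA and Tween-20. Steps lasted 0.8–1.5 h (lowest) to 10–20 min (highest). Titrations ran without input, with 200 uM small-molecule ligand, or with an oligonucleotide input. Normalised cluster fluorescence was curve-fitted, and apparent KD is the per-design median over clusters.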

[1] = input ligand: microRNA oligo, concentration not stated
[2] = Eterna round: R95, input ligand: microRNA oligo, concentration not stated
[3] = Eterna round: R95, input ligand: FMN 200 uM
[4] = Eterna round: R95, input ligand: none

ACAGUUCUGCAAGGAUAUCGUCCUAGUUUGUUUCGAGAAGGUGCUUUUGUUUUUUCCUUUUGUUUACAUGAGGAUCACCCAUGU [JR_ExcNG1_Sub051] (Eterna round: R96, puzzle: Exclusion NG 1)
apparent KD of MS2 coat protein (input ligand: FMN 200 uM): 15.6 nM | apparent KD of MS2 coat protein [1]: 16.6 nM | apparent KD of MS2 coat protein (input ligand: none): 18.9 nM

AACUGACAUGAGGAUCACCCAUGUCAGGAUAUGCUUCAUAAAAACAAACAAAAAUGAUGCAGAAGGGACAUGGA [Design 30 :P Sub-opt 6] (Eterna round: R96, puzzle: Exclusion 1)
apparent KD of MS2 coat protein [1]: 14.3 nM

GUCGCUAGAGGAUAUACAAUGGUAUAUGAUCCUAGUGACAUACAUGAGGAUCACCCAUGUAGAAGGCUAGUAAU [Exclusion 2 - 7] (puzzle: Exclusion 2)
apparent KD of MS2 coat protein [2]: 24.8 nM

AGCUGGAGAGGAUAUACGUAGGAAAAAAAAGUCUGAUCACUACAUGAGGAUCACCCAUGUAGAAGGCUCUGGCA [Ex2 Design 162: Sub-opt 26] (Eterna round: R96, puzzle: Exclusion 2)
apparent KD of MS2 coat protein (input ligand: FMN 200 uM): 104 nM | apparent KD of MS2 coat protein [1]: 16.5 nM | apparent KD of MS2 coat protein (input ligand: none): 20.5 nM

AUAGGUUCGUAGGAUAUUCCUGCAGGCGCGCUGGAAGAAGGAUGAACAUGAGGAUCACCCAUGUGAACACUCCG [Eternabot (L2) Solution 88] (Eterna round: R97, puzzle: Exclusion 6)
apparent KD of MS2 coat protein (input ligand: FMN 200 uM): 78.3 nM | apparent KD of MS2 coat protein (input ligand: none): 19.6 nM

GGCGCCUGAGGAUAUCAGUCUGGAUCAGAAAAGAUCCUGACUGAGAAGGCACAUGAGGAUCACCCAUGUUCGCC [Mat - Exclusion 4 - Eli Mod - D51] (Eterna round: R97, puzzle: Exclusion 4)
apparent KD of MS2 coat protein (input ligand: FMN 200 uM): 14.5 nM | apparent KD of MS2 coat protein (input ligand: none): 14.7 nM

GGAGCGAUUCUCUUAGUUAACAUGAGGAUCACCCAUGUGUACAAGCUCUUAUUUUGCUCGUCUUACCGAGAGUUGCC [Tienve] (puzzle: Sensor v3, turn-off variant 1)
apparent KD of MS2 coat protein [3]: 22.6 nM | apparent KD of MS2 coat protein [2]: 74.3 nM | apparent KD of MS2 coat protein [4]: 24.7 nM

UGUAGUUCAGGAUAUGAUGUUAAAUACAUGAGGAUCACCCAUGUAGAUCCUGAAUUUACAUCAGAAGGGAAUAUUU [JL-ex5-4.56 Brourd mod] (Eterna round: R97, puzzle: Exclusion 5)
apparent KD of MS2 coat protein (input ligand: FMN 200 uM): 22.8 nM | apparent KD of MS2 coat protein (input ligand: none): 17.1 nM

UUUACAAGCUUAUGAUCCCACAUGAGGAUCACCCAUGUUGCUGCCGGUGACGGUAGCAUAACAUAUGCUCGUCUUAU [JL TOV1 3.57] (Eterna round: R97, puzzle: Sensor, turn-off variant 1)
apparent KD of MS2 coat protein (input ligand: FMN 200 uM): 1570 nM | apparent KD of MS2 coat protein (input ligand: none): 1840 nM

ACUUAUAGAGGAUAUACAGAAUAUUACAUGAGGAUCACCCAUGUUCUUCAAUGUAUAUAAGUAGAAGGCUAAGGUU [Mat - Exclusion 5 - JL Mod - D5] (Eterna round: R97, puzzle: Exclusion 5)
apparent KD of MS2 coat protein (input ligand: FMN 200 uM): 282 nM | apparent KD of MS2 coat protein (input ligand: none): 33.4 nM

CUUUCGUCUGUGGGUGGUGACAUGAGGAUCACCCAUGUUUUGCUCGUUUUGUCUUGGGCUCGGCGCCCGGGUUCGGG [-25.2, -46.4, A 8%] (Eterna round: R97, puzzle: Sensor, turn-off variant 1)
apparent KD of MS2 coat protein (input ligand: FMN 200 uM): 467 nM | apparent KD of MS2 coat protein (input ligand: none): 872 nM

AAGAGUAGAGGAUAUACGAAAAAAGAGUCGAAAGACUCGGGACAUGAGGAUCACCCAUGUAGAAGGCUACUCAA [Hyphema Seclusion Mod 62% 5] (Eterna round: R96, puzzle: Exclusion 2)
apparent KD of MS2 coat protein [1]: 19.4 nM

GAUUACUGCAAGCUUAGGGACAUGAGGAUCACCCAUGUUCGUCUUAUUGAUCUAGGUACGCUGACGUACCUAGAUCU [JL-sv1-2.29 Brourd mod] (puzzle: Sensor v3, turn-off variant 1)
apparent KD of MS2 coat protein [3]: 14.7 nM | apparent KD of MS2 coat protein [2]: 19.4 nM | apparent KD of MS2 coat protein [4]: 13.8 nM

AGAAAGCAAGGAUAUACAAAGAAACGACCGAAAGAAAAGAAACAUGAGGAUCACCCAUGUAGAAGGUGCAAGAA [JR_Exclu2_Sub031] (puzzle: Exclusion 2)
apparent KD of MS2 coat protein [3]: 19 nM | apparent KD of MS2 coat protein [2]: 12.8 nM | apparent KD of MS2 coat protein [4]: 17.7 nM

GCUGCGCGAGGAUAUGCGGUUUGUGCUUUGGCCCAUGGCGUACAUGAGGAUCACCCAUGUAGAAGGCGUGUGGG [Apr-15 SS2-52] (puzzle: Exclusion 2)
apparent KD of MS2 coat protein [2]: 12 nM

AAGAACGUACAAGGAUAUCUCCACCACAACGGCAGAGAAGGUGUACAUGAGGAUCACCCAUGUGACCGAAGGCCCUUAUGGGCC [Xeerergeza] (Eterna round: R96, puzzle: Exclusion NG 1)
apparent KD of MS2 coat protein (input ligand: FMN 200 uM): 79.8 nM | apparent KD of MS2 coat protein [1]: 20.6 nM | apparent KD of MS2 coat protein (input ligand: none): 29.6 nM

GUGUGACAUGAGGAUCACCCAUGUGAGGAUAUUUAUGUUUGGUUGUUUAGUUGGGCGUGGAGAAGGCGCGUGCG [19% As] (Eterna round: R97, puzzle: Exclusion 1)
apparent KD of MS2 coat protein (input ligand: FMN 200 uM): 65.6 nM | apparent KD of MS2 coat protein (input ligand: none): 85.1 nM

CUCAUGCCUGAGGAUAUGCUGUACAAAAGUACUGCAGAAGGCAGGACAUGAGGAUCACCCAUGUGGCGAAAGCC [Omei Ex G10] (Eterna round: R97, puzzle: Exclusion 6)
apparent KD of MS2 coat protein (input ligand: FMN 200 uM): 13.4 nM | apparent KD of MS2 coat protein (input ligand: none): 198 nM

GUGAAACAUGAGGAUCACCCAUGUGAGGAUAUGAUACUAUGUACUUCGGUACAUAGUAUCAGAAGGCACAGUGA [Ex1-3: 6] (puzzle: Exclusion 1)
apparent KD of MS2 coat protein [2]: 65.4 nM

UUAAUUAAUUAUAUAAGAUCACAUGAGGAUCACCCAUGUAUAUAGGAUAUCAGCUCGUUUAGAGCUGAGAAGGAUAUACAAUAU [ExNG3/3-B2] (Eterna round: R96, puzzle: Exclusion NG 3)
apparent KD of MS2 coat protein (input ligand: FMN 200 uM): 41.8 nM | apparent KD of MS2 coat protein [1]: 497 nM | apparent KD of MS2 coat protein (input ligand: none): 209 nM

UUAUAAAGUGUGAGGAUAUGCUGGUCCUUAGAUCAGCAGAAGGCACAUGAGGAUCACCCAUGUAAUAUAUUUUU [Mat - Exclusion 4 - JL Mod - D42] (puzzle: Brourd's mod of Exclusion 4)
apparent KD of MS2 coat protein [2]: 33.9 nM

AUAUUAAUAUAGGAUAUCGAAAUUAUUAAUUAUCGAGAAGGAUAAACAUGAGGAUCACCCAUGUGGUAUCAUGG [Mat - Exclusion 6 - JL Mod - D41] (puzzle: Exclusion 6)
apparent KD of MS2 coat protein [3]: 257 nM | apparent KD of MS2 coat protein [2]: 257 nM | apparent KD of MS2 coat protein [4]: 328 nM

ACUUGCUUUUUGCUCGUCUUAUUUUUGUUGACGUUCUAUACAUGAGGAUCACCCAUGUUUUGUUCCUUGUGCUGGUA [JR_SV3TOV2_Sub073] (puzzle: Sensor v3, turn-off variant 2)
apparent KD of MS2 coat protein [3]: 169 nM | apparent KD of MS2 coat protein [2]: 183 nM | apparent KD of MS2 coat protein [4]: 166 nM

CUCUCUCAUGUGAGGAUAUCGAGGCAGUCCGCAAACGAGAAGGUACAUGAGGAUCACCCAUGUCAACAGUAAUG [BmEX4 C.8] (Eterna round: R97, puzzle: Brourd's mod of Exclusion 4)
apparent KD of MS2 coat protein (input ligand: FMN 200 uM): 143 nM | apparent KD of MS2 coat protein (input ligand: none): 33 nM
